± gives the uncertainty stated by the source.

This data set in a line: self-splicing fitness, log relative to wild type (ln ratio); higher = more splicing; Tetrahymena group I intron in knt gene, E. coli kanamycin selection, DiMSum; sequences stand for … in CUCUCU…GGAGGGAAAAGUUAUCAGGCAUGCACCUGGUAGCUAGUCUUUAAACCAAUAGAUUGCAUCGGUUUAAAAGGCAAGACCGUCAAAUUGCGGGAAAGGGGUCAACAGCCGUUCAGUACCAAGUCUCAGGGGAAACUUUGAGAUGGCCUUGCAAAGGGUAUGGUAAUAAGCUGACGGACAUGGUCCUAACCACGCAGCCAAGUCCUAAGUCAACAGAUCUUCUGUUGAUAUGGAUGCAGUUCACAGACUAAAUGUCGGUCGGGGAAGAUGUAUUCUUCUCAUAAGAUAUAGUCGGACCUCUCCUUAAUGGGAGCUAGCGGAUGAAGUGAUGCAACACUGGAGCCGCUGGGAACUAAUUUGUAUGCGAAAGUAUAUUGAUUAGUUUUGGAGUACUCGUGGUCG
The method, boiled down: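 Library with all eight P1ex-region intron nucleotides randomised, intron inside the knt kanamycin-resistance gene on pET-22b(+), in E. coli BL21(DE3). Cells grew overnight at 37°C or 30°C on LB agar with or without 25 μg/mL kanamycin (plus 100 μg/mL carbenicillin, 50 μM IPTG, 0.2% rhamnose), in six replicate transformations. Pooled colonies were amplicon-sequenced on Illumina HiSeq 2500. DiMSum fitness is the error-weighted combination of wild-type-normalised replicate fold changes, kanamycin versus none.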

Take UGUCAGCAAUAUUACGCAAU: the “self-splicing fitness (ln)” value was -1.81 ± 0.14 (30 °C) and -2.24 ± 0.2 (37 °C).

On to UGUCAGCAAUAUUACGCAGU, for which the “self-splicing fitness (ln)” value (30 °C) is -1.27 ± 0.18 and the “self-splicing fitness (ln)” value (37 °C) was -0.898 ± 0.27. In the same order, the values of UGUCAGCAAUAUUACGCAUG are -0.692 ± 0.077 and 0.415 ± 0.097. In the same order, the values of UGUCAGCAAUAUUACGCCCA are 0.0616 ± 0.14 and 0.348 ± 0.18. In the same order, the values of UGUCAGCAAUAUUACGCGCG are -0.708 ± 0.14 and 0.0603 ± 0.13. As to UGUCAGCAAUAUUACGCGUG, the “self-splicing fitness (ln)” value stood at 0.623 ± 0.069 (30 °C) and 0.117 ± 0.098 (37 °C). The like results for UGUCAGCAAUAUUACGGAGG were, in that order, -1.68 ± 0.072 and -0.948 ± 0.097. In the case of UGUCAGCAAUAUUACGGAGU, the “self-splicing fitness (ln)” value is -3.6 ± 0.17 (30 °C) and -1.96 ± 0.15 (37 °C). The like results for UGUCAGCAAUAUUACGGCCU were, in that order, -0.452 ± 0.23 and 0.483 ± 0.3. As for UGUCAGCAAUAUUACGGCUA, the “self-splicing fitness (ln)” value runs as follows: (30 °C) 0.131 ± 0.094; (37 °C) 0.327 ± 0.12.

In the case of UGUCAGCAAUAUUACGGGUA, the “self-splicing fitness (ln)” value (30 °C) was -0.294 ± 0.093 and the “self-splicing fitness (ln)” value (37 °C) came to 0.208 ± 0.11. Turning to UGUCAGCAAUAUUACGGGUG, the “self-splicing fitness (ln)” value runs as follows: (30 °C) -0.605 ± 0.042; (37 °C) -0.00626 ± 0.067. In the case of UGUCAGCAAUAUUACGGUAG, the “self-splicing fitness (ln)” value reads like this: (30 °C) -0.675 ± 0.07; (37 °C) -0.235 ± 0.091. For UGUCAGCAAUAUUACGUAAG, the “self-splicing fitness (ln)” value by setting is: (30 °C) -0.352 ± 0.07; (37 °C) 0.0208 ± 0.087. For the sequence UGUCAGCAAUAUUACGUAGC, the “self-splicing fitness (ln)” value was -3.11 ± 0.2 (30 °C) and -2.17 ± 0.19 (37 °C). In the case of UGUCAGCAAUAUUACGUCCG, the “self-splicing fitness (ln)” value is -0.177 ± 0.17 (30 °C) and 0.083 ± 0.2 (37 °C).

Turning to UGUCAGCAAUAUUACGUCUA, the “self-splicing fitness (ln)” value runs as follows: (30 °C) 0.314 ± 0.096; (37 °C) -0.489 ± 0.1.

As for UGUCAGCAAUAUUACGUGAC, the “self-splicing fitness (ln)” value by setting is: (30 °C) -2.8 ± 0.21; (37 °C) -2.81 ± 0.26. The like results for UGUCAGCAAUAUUACGUGGA were, in that order, -1.92 ± 0.1 and -0.49 ± 0.11. In the same order, the values of UGUCAGCAAUAUUACGUUCC are -1.82 ± 0.19 and -0.73 ± 0.25. The like results for UGUCAGCAAUAUUACGUUCU were, in that order, -1.16 ± 0.071 and -0.142 ± 0.073. UGUCAGCAAUAUUACGUUGC: under “37 °C”, the “self-splicing fitness (ln)” value was -1.75 ± 0.46. For UGUCAGCAAUAUUACGUUUA, the “self-splicing fitness (ln)” value (30 °C) was -0.825 ± 0.095 and the “self-splicing fitness (ln)” value (37 °C) was -0.114 ± 0.089.

Consider UGUGAGCAAUAUUACGAACA, for which the “self-splicing fitness (ln)” value is -0.691 ± 0.42 (30 °C) and -0.543 ± 0.45 (37 °C). The like results for UGUGAGCAAUAUUACGACCA were, in that order, -1.27 ± 0.17 and -0.0518 ± 0.21. The like results for UGUGAGCAAUAUUACGAGGU were, in that order, -3.52 ± 0.26 and -2.55 ± 0.23. In the same order, the values of UGUGAGCAAUAUUACGAGUU are -2.72 ± 0.22 and -1.97 ± 0.27. UGUGAGCAAUAUUACGCCCG: the “self-splicing fitness (ln)” value is, setting by setting: (30 °C) -0.83 ± 0.47; (37 °C) -1.17 ± 0.42.

For the sequence UGUGAGCAAUAUUACGCGUG, the “self-splicing fitness (ln)” value is, setting by setting: (30 °C) -1.92 ± 0.11; (37 °C) -1.75 ± 0.11. In the same order, the values of UGUGAGCAAUAUUACGGCCC are -1.88 ± 0.33 and -1.43 ± 0.44. Take UGUGAGCAAUAUUACGGCCU: the “self-splicing fitness (ln)” value (30 °C) is -1.89 ± 0.27 and the “self-splicing fitness (ln)” value (37 °C) was -1.18 ± 0.32. In the same order, the values of UGUGAGCAAUAUUACGGCUG are -0.445 ± 0.12 and -0.456 ± 0.19.

In the case of UGUGAGCAAUAUUACGGGCC, the “self-splicing fitness (ln)” value is, setting by setting: (30 °C) -3 ± 0.31; (37 °C) -3.45 ± 0.39.

For the sequence UGUGAGCAAUAUUACGGUCG, the “self-splicing fitness (ln)” value is -0.638 ± 0.094 (30 °C) and -0.935 ± 0.12 (37 °C). In the same order, the values of UGUGAGCAAUAUUACGGUGA are -2.19 ± 0.31 and -1.67 ± 0.2. The like results for UGUGAGCAAUAUUACGGUUG were, in that order, -2.98 ± 0.19 and -2.17 ± 0.23. In the same order, the values of UGUGAGCAAUAUUACGUCCU are -0.548 ± 0.1 and -1.51 ± 0.18. Consider UGUGAGCAAUAUUACGUCGU, for which the “self-splicing fitness (ln)” value (30 °C) was -2.1 ± 0.3. UGUGAGCAAUAUUACGUGAC: the “self-splicing fitness (ln)” value by setting is: (30 °C) -4.58 ± 0.32; (37 °C) -3.08 ± 0.25.

As to UGUGAGCAAUAUUACGUGGA, the “self-splicing fitness (ln)” value by setting is: (30 °C) -2.53 ± 0.15; (37 °C) -3.05 ± 0.22.

Regarding UGUGAGCAAUAUUACGUUUA, the “self-splicing fitness (ln)” value reads like this: (30 °C) -2.98 ± 0.32; (37 °C) -3.17 ± 0.47. In the same order, the values of UGUGAGCAAUAUUACGUUUG are -2.21 ± 0.14 and -2.76 ± 0.26. In the same order, the values of UGUUAGCAAUAUUACGACGA are -0.147 ± 0.12 and 0.253 ± 0.15. In the same order, the values of UGUUAGCAAUAUUACGAGCC are -2.39 ± 0.22 and -0.493 ± 0.17.

Take UGUUAGCAAUAUUACGAGCU: the “self-splicing fitness (ln)” value runs as follows: (30 °C) -0.427 ± 0.16; (37 °C) 0.455 ± 0.19.

As for UGUUAGCAAUAUUACGCAGU, the “self-splicing fitness (ln)” value (30 °C) was -3.62 ± 0.27 and the “self-splicing fitness (ln)” value (37 °C) was -2.48 ± 0.27. On to UGUUAGCAAUAUUACGCCCC, for which the “self-splicing fitness (ln)” value (37 °C) amounted to 0.337 ± 0.48. Same read-out and setting: then UGUUAGCAAUAUUACGCUUC, with -1.5 ± 0.48. Still for that read-out and setting: then UGUUAGCAAUAUUACGGAAA, with -2.24 ± 0.39. As for UGUUAGCAAUAUUACGGGGG, the “self-splicing fitness (ln)” value (30 °C) is -3.91 ± 0.35 and the “self-splicing fitness (ln)” value (37 °C) is -1.94 ± 0.36.

As to UGUUAGCAAUAUUACGGGUU, the “self-splicing fitness (ln)” value is -4.27 ± 0.42 (30 °C) and -1.58 ± 0.17 (37 °C).

With UGUUAGCAAUAUUACGUAAG, the “self-splicing fitness (ln)” value reads like this: (30 °C) -0.949 ± 0.097; (37 °C) -0.452 ± 0.14. The like results for UGUUAGCAAUAUUACGUCGA were, in that order, -0.909 ± 0.12 and 0.0206 ± 0.13. In the same order, the values of UGUUAGCAAUAUUACGUCGC are -3.73 ± 0.18 and -2.23 ± 0.18. As for UUAAAGCAAUAUUACGAAGC, the “self-splicing fitness (ln)” value is, setting by setting: (30 °C) -3.34 ± 0.32; (37 °C) -2.25 ± 0.28. The like results for UUAAAGCAAUAUUACGACAA were, in that order, 0.44 ± 0.091 and 0.336 ± 0.11. In the same order, the values of UUAAAGCAAUAUUACGACGA are 0.0585 ± 0.12 and 0.0349 ± 0.12. As to UUAAAGCAAUAUUACGACGU, the “self-splicing fitness (ln)” value was -0.129 ± 0.069 (30 °C) and 0.0726 ± 0.1 (37 °C). In the same order, the values of UUAAAGCAAUAUUACGACUU are -1.11 ± 0.1 and -0.0515 ± 0.14. In the same order, the values of UUAAAGCAAUAUUACGAGAU are -3.41 ± 0.21 and -2.19 ± 0.21. The like results for UUAAAGCAAUAUUACGCAAU were, in that order, -2.44 ± 0.15 and -1.42 ± 0.17. Consider UUAAAGCAAUAUUACGCACC, for which the “self-splicing fitness (ln)” value runs as follows: (30 °C) -0.965 ± 0.33; (37 °C) -0.676 ± 0.44. The like results for UUAAAGCAAUAUUACGCAUC were, in that order, -1.88 ± 0.17 and -1.39 ± 0.34.

Consider UUAAAGCAAUAUUACGCCCG, for which the “self-splicing fitness (ln)” value is, setting by setting: (30 °C) -0.0363 ± 0.09; (37 °C) 0.273 ± 0.11. In the same order, the values of UUAAAGCAAUAUUACGCGAA are -0.169 ± 0.15 and 0.0649 ± 0.18.

Consider UUAAAGCAAUAUUACGCGAU, for which the “self-splicing fitness (ln)” value reads like this: (30 °C) -3.01 ± 0.24; (37 °C) -0.953 ± 0.17.

Turning to UUAAAGCAAUAUUACGCGUC, the “self-splicing fitness (ln)” value was -1.08 ± 0.11 (30 °C) and -1.66 ± 0.16 (37 °C). The like results for UUAAAGCAAUAUUACGCUGU were, in that order, -1.31 ± 0.16 and -1.68 ± 0.2. In the same order, the values of UUAAAGCAAUAUUACGGGUG are 0.148 ± 0.069 and 0.271 ± 0.098. The like results for UUAAAGCAAUAUUACGGUCA were, in that order, 0.199 ± 0.071 and 0.479 ± 0.11. As to UUAAAGCAAUAUUACGGUGC, the “self-splicing fitness (ln)” value is, setting by setting: (30 °C) -4.36 ± 0.42; (37 °C) -2.14 ± 0.34. The like results for UUAAAGCAAUAUUACGGUGG were, in that order, -0.511 ± 0.079 and 0.0701 ± 0.1.

For the sequence UUAAAGCAAUAUUACGUACU, the “self-splicing fitness (ln)” value is -0.208 ± 0.079 (30 °C) and -0.142 ± 0.099 (37 °C). In the same order, the values of UUAAAGCAAUAUUACGUGGG are -1.65 ± 0.1 and -2.03 ± 0.17. The like results for UUAAAGCAAUAUUACGUUCA were, in that order, 0.284 ± 0.087 and 0.233 ± 0.12. In the same order, the values of UUAAAGCAAUAUUACGUUCG are 0.19 ± 0.084 and -0.157 ± 0.096.

The values are drawn from the supplement of paper PMC7877785.
